The text below walks through data of article PMC3419264, “ATPase Site Architecture Is Required for Self-Assembly and Remodeling Activity of a Hexameric AAA+ Transcriptional Activator” (Molecular Cell, 2012).

This data set relates to T1, Nc1ncnc2c1ncn2[C@@H]1O[C@H](COP(=O)(O)OP(=O)(O)OP(=O)(O)O)[C@@H](O)[C@H]1O.
T1 construct: AAA+ domain, residues 1-275; purified as in Joly et al. 2006; hexamer
Put plainly: steady-state ATPase assay, NADH-coupled regeneration system. It is filed as biochemical, Escherichia coli. The conditions noted are these: 37 °C, without σ54, turnover given as Vmax (min^-1), maximal error 10%. The text has this:
steady-state ATPase assay, NADH-coupled regeneration system on PspF1-275
What is called Km is the concentration of substrate that gives half-maximal velocity. What is called kcat is the maximal rate divided by the concentration of active sites. With PspF1-275 (Escherichia coli K-12; E43A), the Km is 750 µM and the kcat stood at 0.0228 ± 0.00167 s⁻¹.
The like results for PspF1-275 (Escherichia coli K-12; E43D) were, in that order, 250 µM and 0.371 ± 0.08 s⁻¹.
The matching figures for PspF1-275 (Escherichia coli K-12; E43Y): 1,250 μM and 0.0415 ± 0.00283 s⁻¹.
With “PspF1-275 (Escherichia coli K-12; E118D)”, the Km came out at 800 µM and the kcat was found to be 0.3372 ± 0.0617 s⁻¹.
The like results for PspF1-275 (Escherichia coli K-12; L9A) were, in that order, 2,300 μM and 0.3453 ± 0.0425 s⁻¹.
Take PspF1-275 (Escherichia coli K-12; L44A): the Km came to 310 µM and the kcat is 0.3027 ± 0.0403 s⁻¹.
The like results for “PspF1-275 (Escherichia coli K-12; R122A)” were, in that order, 300 µM and 0.021 ± 0.0005 s⁻¹.
For “PspF1-275 (Escherichia coli K-12; R162A)”, the Km was 90 µM and the kcat turned out to be 0.003 ± 0.00033 s⁻¹.
The like results for “PspF1-275 (Escherichia coli K-12; R162K)” were, in that order, 200 µM and 0.0313 ± 0.00483 s⁻¹.
The matching figures for “PspF1-275 (Escherichia coli K-12; Y126A)”: 650 µM and 0.1992 ± 0.0295 s⁻¹.
